Biological target: T1, biotinylated CD59 (Homo sapiens, UniProt P13987)
T1 construct: Recombinant soluble human CD59 with an additional C-terminal cysteine residue
T1 sequence (P13987 26-102 limits assumed): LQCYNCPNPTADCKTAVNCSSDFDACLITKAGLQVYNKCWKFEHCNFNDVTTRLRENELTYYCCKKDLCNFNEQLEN
Assay: mRNA-display cyclic peptide screen against CD59-biotin, NGS abundance after 6th selection round
Details: for Counts (raw counts for peptide sequence), Seq I: NGS sample Seq I; for Counts (raw counts for peptide sequence), Seq I / Counts (raw counts for peptide sequence), Seq II / Counts Seq I / Counts Seq II: sheet R6 (6th selection round); for Counts (raw counts for peptide sequence), Seq II: NGS sample Seq II; for Percentage of the pool, averaged across the two sequencing samples: average of Seq I and Seq II; for Percentage of the pool, averaged across the two sequencing samples / Percentage of the pool, Seq I / Percentage of the pool, Seq II / Percentage Seq I / Percentage Seq II / Percentage Average: sheet R6; for Percentage of the pool, Seq I: counts normalised by total counts of NGS sample Seq I; for Percentage of the pool, Seq II: counts normalised by total counts of NGS sample Seq II; for Percentage Seq I: counts normalised by total counts of sample Seq I; for Percentage Seq I / Percentage Seq II: percentage of the pool; for Percentage Seq II: counts normalised by total counts of sample Seq II; for Percentage Average: percentage of the pool averaged across the two sequencing samples; for Counts Seq I / Counts Seq II: raw NGS counts of peptide sequence; for Counts Seq I: sequencing sample Seq I; for Counts Seq II: sequencing sample Seq II
In short: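 Peptide–mRNA fusions were made by in vitro translation with a customised PURE express kit. The kit lacked release factor 1 and methionine and was supplemented with […] initiator tRNA carrying N-chloroacetyl-d-tyrosine. Thioether macrocycles were formed, then enriched and amplified over iterative rounds on CD59-biotin immobilised on streptavidin beads. NGS read counts per sequence were recorded after the 6th selection round.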

Row | Sequence | Counts (raw counts for peptide sequence), Seq I | Counts (raw counts for peptide sequence), Seq II | Percentage of the pool, averaged across the two sequencing samples [%] | Percentage of the pool, Seq I [%] | Percentage of the pool, Seq II [%] | Percentage Seq I [%] | Percentage Seq II [%] | Percentage Average [%] | Counts Seq I | Counts Seq II
1 | CYTYRSLDPQSV | 42 | 9 | 0.015 | 0.010 | 0.021 |  |  |  |  | 
2 | DCWVRGSRNYT | 62 | 6 | 0.014 | 0.014 | 0.014 |  |  |  |  | 
3 | DPICTRYNDPR | 46 | 5 | 0.011 | 0.011 | 0.012 |  |  |  |  | 
4 | DPWCTPFSNVT |  |  |  |  |  | 0.186 | 0.209 | 0.198 | 815 | 90
5 | DPYCPFFPEFR | 52 | 5 | 0.012 | 0.012 | 0.012 |  |  |  |  | 
6 | DSRNQCHTWKT | 87 | 6 | 0.017 | 0.020 | 0.014 |  |  |  |  | 
7 | DYNRIVWGRGNAAAAAAARTGGG | 89 | 6 | 0.017 | 0.020 | 0.014 |  |  |  |  | 
8 | EARGTKSFAYY |  |  |  |  |  | 0.124 | 0.100 | 0.112 | 544 | 43
9 | EIRGALNWVRG |  |  |  |  |  | 0.125 | 0.146 | 0.136 | 549 | 63
10 | FARGDLYSVLG | 71 | 5 | 0.014 | 0.016 | 0.012 |  |  |  |  | 
11 | FARGDRNHQFY | 63 | 5 | 0.013 | 0.014 | 0.012 |  |  |  |  | 
12 | FARGDWNHQFY | 120 | 3 | 0.017 | 0.027 | 0.007 |  |  |  |  | 
13 | FATGNRDHTRG |  |  |  |  |  | 0.027 | 0.014 | 0.020 | 117 | 6
14 | FIFGNRNWTFG |  |  |  |  |  | 0.021 | 0.021 | 0.021 | 94 | 9
15 | FIRGDSTSVLF | 54 | 6 | 0.013 | 0.012 | 0.014 |  |  |  |  | 
16 | FIRGNSTSVLC | 36 | 5 | 0.010 | 0.008 | 0.012 |  |  |  |  | 
17 | FIRGNSTSVLF |  |  |  |  |  | 1.617 | 1.838 | 1.728 | 7076 | 792
18 | FIRGNSTSVLFAAAAAAARTGGG | 40 | 7 | 0.013 | 0.009 | 0.016 |  |  |  |  | 
19 | FIRGNSTSVLFLRQRQRQLGRGAE |  |  |  |  |  | 0.060 | 0.072 | 0.066 | 264 | 31
20 | FIRGNSTSVLY | 58 | 8 | 0.016 | 0.013 | 0.019 |  |  |  |  | 
21 | FIRGNSTSVPF | 46 | 4 | 0.010 | 0.011 | 0.009 |  |  |  |  | 
22 | FISGSRSWRKQ |  |  |  |  |  | 0.036 | 0.023 | 0.030 | 159 | 10

Row | Sequence | Counts (raw counts for peptide sequence), Seq I | Counts (raw counts for peptide sequence), Seq II | Percentage of the pool, averaged across the two sequencing samples [%] | Percentage of the pool, Seq I [%] | Percentage of the pool, Seq II [%] | Percentage Seq I [%] | Percentage Seq II [%] | Percentage Average [%] | Counts Seq I | Counts Seq II
23 | FITGNRDHTRG |  |  |  |  |  | 0.018 | 0.026 | 0.022 | 78 | 11
24 | FKYGNSNFVRG |  |  |  |  |  | 0.035 | 0.039 | 0.037 | 154 | 17
25 | FQRGTRSTSWG |  |  |  |  |  | 0.054 | 0.035 | 0.045 | 238 | 15
26 | FQYFGTGIAFG |  |  |  |  |  | 0.301 | 0.325 | 0.313 | 1316 | 140
27 | FRGRNDICTH | 73 | 8 | 0.018 | 0.017 | 0.019 |  |  |  |  | 
28 | FTRGNSTSVLF | 51 | 7 | 0.014 | 0.012 | 0.016 |  |  |  |  | 
29 | FVAGNRDHTRG |  |  |  |  |  | 0.023 | 0.016 | 0.020 | 102 | 7
30 | FVFGNRHFRTE |  |  |  |  |  | 0.408 | 0.492 | 0.450 | 1785 | 212
31 | FVLGNRHTIVG | 57 | 6 | 0.013 | 0.013 | 0.014 |  |  |  |  | 
32 | FVMGNRDHTRG |  |  |  |  |  | 0.017 | 0.023 | 0.020 | 76 | 10
33 | FVRGDLHSVLG |  |  |  |  |  | 0.058 | 0.044 | 0.051 | 253 | 19
34 | FVRGDLNSVLG | 69 | 5 | 0.014 | 0.016 | 0.012 |  |  |  |  | 
35 | FVRGDLYPVLG | 65 | 5 | 0.013 | 0.015 | 0.012 |  |  |  |  | 
36 | FVRGDLYSALG | 80 | 6 | 0.016 | 0.018 | 0.014 |  |  |  |  | 
37 | FVRGDLYSILG | 50 | 6 | 0.013 | 0.011 | 0.014 |  |  |  |  | 
38 | FVRGDLYSVFG |  |  |  |  |  | 0.023 | 0.026 | 0.024 | 102 | 11
39 | FVRGDLYSVIG | 54 | 6 | 0.013 | 0.012 | 0.014 |  |  |  |  | 
40 | FVRGDLYSVLG |  |  |  |  |  | 4.958 | 4.911 | 4.934 | 21693 | 2116
41 | FVRGDLYSVLS | 43 | 4 | 0.010 | 0.010 | 0.009 |  |  |  |  | 
42 | FVRGDLYSVRG |  |  |  |  |  | 0.018 | 0.032 | 0.025 | 78 | 14
43 | FVRGDMYSVLG | 39 | 6 | 0.011 | 0.009 | 0.014 |  |  |  |  | 

— paper PMC12207370, “Macrocyclic Peptide Probes for Immunomodulatory Protein CD59: Potent Modulators of Bacterial Toxin Activity and Antibody‐Dependent Cytotoxicity” (Angewandte Chemie (International Ed. in English), 2025)
